Laboratory results as given in patent US20240101668A1 (WUGEN, published 2024).

T1: huCLL1-Q244-Avi-Tev-His (human, UniProt Q5QGZ9 65-265)
T1 construct: extracellular domain; also called CLL-1 K244Q
T1 sequence (looked up): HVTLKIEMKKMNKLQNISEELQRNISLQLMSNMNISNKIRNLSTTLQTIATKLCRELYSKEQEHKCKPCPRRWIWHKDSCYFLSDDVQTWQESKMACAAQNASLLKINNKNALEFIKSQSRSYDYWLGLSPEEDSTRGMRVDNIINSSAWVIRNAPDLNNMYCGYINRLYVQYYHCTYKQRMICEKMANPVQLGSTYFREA

T2: huCLL1-K244-Avi-Tev-His (human, UniProt Q5QGZ9 65-265)
T2 construct: extracellular domain
T2 sequence (looked up): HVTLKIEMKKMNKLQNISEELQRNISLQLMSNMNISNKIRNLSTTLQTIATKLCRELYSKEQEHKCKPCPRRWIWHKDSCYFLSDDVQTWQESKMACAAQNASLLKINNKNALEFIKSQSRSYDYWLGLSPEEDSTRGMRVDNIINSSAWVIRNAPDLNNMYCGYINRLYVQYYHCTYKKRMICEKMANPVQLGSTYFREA


Columns and labels:
huCLL1-Q244-Avi-Tev-His = target: T1, huCLL1-Q244-Avi-Tev-His; experiment: BLI
Protocol: (§1) Discovered scFvs were analyzed for binding to huCD33-R69-His or huCD33-G69-Fc recombinant proteins (for anti-CD33 scFvs; for CLL-1 scFvs, huCLL1-K244-Avi-Tev-His or huCLL1-Q244-Avi-Tev-His were used; for FLT3, huFLT3-T227-His or huFLT3-M227-Fc were used) using BLI on a ForteBio Octet HTX instrument. Streptavidin-coated biosensors were loaded with biotinylated anti-V5 tag monoclonal antibody for 5 min and were then quenched and blocked with 20 μM amine-PEG2-Biotin for 5 min. scFvs were captured on biosensors from scFv clone periplasmic extracts. huCD33 (or huCLL-1, or huFLT3) proteins were then associated with the captured scFvs for 2 minutes, followed by dissociation with buffer (1×HBST [10 mM HEPES pH 7.4, 150 mM NaCl, 0.05% Tween-20], 1 g/L BSA) for 5 minutes. […] Data was fitted with 1:1 Langmuir equation and off-rate values were reported.
(§2) Analogous methods were used to assess selectivity of binding of polypeptides to CLL-1 K244 or CLL-1 Q244.

huCLL1-K244-Avi-Tev-His = target: T2, huCLL1-K244-Avi-Tev-His; experiment: BLI
Protocol: as §1, §2

[1] = target: T3, huCD33-G69-Fc recombinant protein (human, UniProt P20138 18-259); experiment: BLI;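 note: scFvs from periplasmic extracts captured on biosensors via anti-V5 antibody, exposed to recombinant huCD33 variants for 2 min, 5 min dissociation, scored as binding, no binding or ambiguous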
T3 construct: extracellular domain; also called CD33 R69G
T3 sequence (P20138 18-259 R69G): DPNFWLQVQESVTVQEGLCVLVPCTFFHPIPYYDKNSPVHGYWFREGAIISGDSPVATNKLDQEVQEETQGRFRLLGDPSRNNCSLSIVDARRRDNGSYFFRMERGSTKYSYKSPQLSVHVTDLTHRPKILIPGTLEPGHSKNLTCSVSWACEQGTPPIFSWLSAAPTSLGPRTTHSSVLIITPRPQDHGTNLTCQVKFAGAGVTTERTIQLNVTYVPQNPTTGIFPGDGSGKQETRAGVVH
Protocol: as §1

[2] = target: T4, huCD33-R69 stably expressed on Jurkat cells (human, UniProt P20138 18-364); experiment: FACS on cells;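 note: fixed Jurkat cells bearing either CD33 variant, barcoded by dye, exposed to myc-tagged scFv periplasmic extracts, detected with anti-myc PE antibody and read by flow cytometry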
T4 construct: whole, on cells; >200,000 receptors per cell; also called CD33 WT; CD33^ARG69
T4 sequence (P20138 18-364): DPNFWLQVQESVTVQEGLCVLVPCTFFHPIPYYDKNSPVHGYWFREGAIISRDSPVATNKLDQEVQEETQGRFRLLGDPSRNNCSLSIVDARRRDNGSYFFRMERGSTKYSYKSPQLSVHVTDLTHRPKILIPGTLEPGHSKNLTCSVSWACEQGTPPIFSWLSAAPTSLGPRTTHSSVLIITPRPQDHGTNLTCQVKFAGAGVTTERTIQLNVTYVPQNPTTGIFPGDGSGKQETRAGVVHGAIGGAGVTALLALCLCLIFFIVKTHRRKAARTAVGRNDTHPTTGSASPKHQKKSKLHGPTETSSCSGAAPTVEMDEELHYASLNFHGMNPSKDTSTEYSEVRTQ
Protocol: (§3) Jurkat cells were engineered to stably express either the huCD33-R69 or huCD33-G69 variant at >200,000 receptors per cell. Parental, huCD33-R69, and huCD33-G69 Jurkat cell lines were stained with differing levels of CellTrace Violet Cell Proliferation Kit (ThermoFisher, cat. #C34557) to barcode each cell line. Barcoded Jurkat cell lines were fixed with paraformaldehyde and incubated with myc-labeled scFv periplasmic extracts and a secondary anti-myc PE-conjugated monoclonal antibody. Appropriate positive and negative controls were used. Stained cells were analyzed by flow cytometry (CytoFLEX, Beckman Coulter, Inc.) and binding was assessed by change in PE mean fluorescence intensity (MFI) of the barcoded cell populations.

[3] = target: T5, huCD33-G69 stably expressed on Jurkat cells (human, UniProt P20138 18-364); experiment: FACS on cells;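 note: fixed Jurkat cells bearing either CD33 variant, barcoded by dye, exposed to myc-tagged scFv periplasmic extracts, detected with anti-myc PE antibody and read by flow cytometry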
T5 construct: whole, on cells; >200,000 receptors per cell; also called CD33 Mutant; CD33 R69G
T5 sequence (P20138 18-364 R69G): as the sequence (P20138 18-364) above, with R52G counted along it
Protocol: as §3

Binder	binding result (huCLL1-Q244-Avi-Tev-His)	binding result (huCLL1-K244-Avi-Tev-His)	binding result [1]	geometric mean MFI fold change over Jurkat parental [2] [fold]	geometric mean MFI fold change over Jurkat parental [3] [fold]
Polypeptide No. 45 (scFv, V domains shown, scFv) VH: EVQLVESGGGLVKPGGSLRLSCAASGFTFDEFGMNWVRQAPGKGLEWISYISGDSGYTNCADSVKGRFTISRDDSKNTLYLQMNSLKTEDTAVYYCAAGYGGYYFDYWGQGTLVTVSS VL: DIQMTQSPSSLSASVGDRVTITCQASQDIDIYLNWYQQKPGKAPKLLIYAASTLESGVPSRFSGSGSGTDFTLTISSLQPEDFATYYCQQSYSTPPTFGGGTKVEIKR	no binding	binds			
Polypeptide No. 5 (scFv, V domains shown, scFv) VH: QVQLVQSGAEVKKPGASVKVSCKASGNTFTSYGISWVRQAPGQGLEWMGWINPNSGGTKYAQKFQGRVTMTRDTSTSTVYMELSSLRSEDTAVYYCARESWFGELYYGMDVWGKGTTVTVSS VL: not shown			no binding	> 30	< 2
Polypeptide No. 44 (scFv, V domains shown, scFv) VH: EVQLLESGGGLVQPGGSLRLSCAASGFTFSSYAMHWVRQAPGKGLEWVADISGSGGLTYYADSVKGRFTISRDNSKNTLYLQMNSLRAEDTAVYYCAREGDQYSSSSFFDYWGQGTLVTVSS VL: not shown	no binding	binds			
Polypeptide No. 20 (scFv, V domains shown, scFv) VH: QVQLVQSGAEVKKPGASVKVSCKASGYMFTGYYIHWVRQAPGQGLEWMGWINPNSGGTNYAQKFQGRVTMTRDTSTSTVYMELSSLRSEDTAVYYCAKDRFGSGNYGYMDVWGKGTTVTVSS VL: DIQMTQSPSSLSASVGDRVTITCRASQSIDRWLAWYQQKPGKAPKLLIYGASSLQSGVPSRFSGSGSGTDFTLTISSLQPEDFATYYCQQSYSTPWTFGQGTRLEIKR				10 to 30	< 2
Polypeptide No. 11 (scFv, V domains shown, scFv) VH: QVQLVQSGAEVKKPGASVKVSCKASGDTFTNHYMHWVRQAPGQGLEWMGWINPNSGGTNYAQKFQGRVTMTRDTSTSTVYMELSSLRSEDTAVYYCARDLVPAAVGGYFDYWGQGTLVTVSS VL: DIQMTQSPSSLSASVGDRVTITCRASQSLGSWLAWYQQKPGKAPKLLIYAASSLQSGVPSRFSGSGSGTDFTLTISSLQPEDFATYYCQQANSFPLTFGQGTKVEIKR			no binding	2 to 10	< 2
Polypeptide No. 49 (scFv, V domains shown, scFv) VH: EVQLVESGGGLVKPGGSLRLSCAASGFTFSDYALHWVRQAPGKGLEWVSLISGDGGSTYYADSVKGRFTISRDDSKNTLYLQMNSLKTEDTAVYYCARDLGGERSYWGQGTLVTVSS VL: DIQMTQSPSSLSASVGDRVTITCRASQSISTWLAWYQQKPGKAPKLLIYAASTLQSGVPSRFSGSGSGTDFTLTISSLQPEDFATYYCLQDYSYPPTFGQGTKVEIKR	no binding	binds			
Polypeptide No. 48 (scFv, V domains shown, scFv) VH: EVQLLESGGGLVQPGGSLRLSCAASGFNFDDYAMHWVRQAPGKGLEWVSVIYSGGSTYYADSVKGRFTISRDNSKNTLYLQMNSLRAEDTAVYYCTRHDFDYWGQGTLVTVSS VL: DIQMTQSPSSLSASVGDRVTITCRASQSISTYVNWYQQKPGKAPKLLIYAASSLQSGVPSRFSGSGSGTDFTLTISSLQPEDFATYYCQQDYSYPYTFGQGTKVEIKR	no binding	binds			
Polypeptide No. 24 (scFv, V domains shown, scFv) VH: QVQLVQSGAEVKKPGSSVKVSCKASGYSFTSYGISWVRQAPGQGLEWLGWISAYNGNTNYGQSLQGRVTITADESTSTAYMELSSLRSEDTAVYYCARARGAGTFFDYWGQGTLVTVSS VL: DIVMTQSPLSLPVTPGEPASISCRSSQSLLHSNGYNYLDWYLQKPGQSPQLLIYDATNLPTGVPDRFSGSGSGTDFTLKISRVEAEDVGVYYCMQALQTPFTFGQGTKLEIKR				> 30	< 2
Polypeptide No. 47 (scFv, V domains shown, scFv) VH: EVQLLESGGGLVQPGGSLRLSCAASGFTFDEYAMHWVRQAPGKGLEWVSAIGAGGSTYYADSVKGRFTISRDNSKNTLYLQMNSLRAEDTAVYYCASSLGPELRGVDYYYYGMDVWGQGTTVTVSS VL: DIVMTQSPLSLPVTPGEPASISCRSSQSLLHSNGYNYLDWYLQKPGQSPQLLIYAASSLQSGVPDRFSGSGSGTDFTLKISRVEAEDVGVYYCMQGIQWPWTFGQGTKVEIKR	no binding	binds			
Polypeptide No. 9 (scFv, V domains shown, scFv) VH: QVQLVQSGAEVKKPGSSVKVSCKASGGTFSSDAINWVRQAPGQGLEWMGGFDPEDGETIYAQKFQGRVTITADESTSTAYMELSSLRSEDTAVYYCARGPSGYDFEFDYWGQGTLVTVSS VL: DIQMTQSPSSLSASVGDRVTITCRSSRNISHWLAWYQQKPGKAPKLLIYKASSLESGVPSRFSGSGSGTDFTLTISSLQPEDFATYYCQQAISFPLTFGGGTKVEIKR			no binding	2 to 10	< 2
Polypeptide No. 6 (scFv, V domains shown, scFv) VH: QVQLVQSGAEVKKPGASVKVSCKASGYTFTAYYTHWVRQAPGQGLEWMGWMNPNSGHTSYAQKFQGRVTMTRDTSTSTVYMELSSLRSEDTAVYYCAREAYDSFDYWGQGTLVTVSS VL: DIQMTQSPSSLSASVGDRVTITCRASQSISSYLNWYQQKPGKAPKLLIYEASTLETGVPSRFSGSGSGTDFTLTISSLQPEDFATYYCQQANSFPFTFGPGTKVDIKR			no binding	> 30	< 2
Polypeptide No. 10 (scFv, V domains shown, scFv) VH: QVQLVQSGAEVKKPGASVKVSCKASGDTFTTYAISWVRQAPGQGLEWMGWINPNSGVATYANKFQGRVTMTRDTSTSTVYMELSSLRSEDTAVYYCAREGIVGATDAFDIWGQGTMVTVSS VL: not shown			no binding	2 to 10	< 2

Other lines, results leading:

binding result (huCLL1-Q244-Avi-Tev-His)	binding result (huCLL1-K244-Avi-Tev-His)	binding result [1]	geometric mean MFI fold change over Jurkat parental [2] [fold]	geometric mean MFI fold change over Jurkat parental [3] [fold]	Binder
no binding	binds				Polypeptide No. 43 (scFv, V domains shown, scFv) VH: QVQLVQSGAEVKKPGASVKVSCKASGYTFTNYYMHWVRQAPGQGLEWLGWISPYSGDTKYAQTLQGRVTMTRDTSTSTVYMELSSLRSEDTAVYYCARESMDRLDYWGQGTLVTVSS VL: DIQMTQSPSSLSASVGDRVTITCRASQSISTYLNWYQQKPGKAPKLLIYDASNLETGVPSRFSGSGSGTDFTLTISSLQPEDFATYYCQQSYSTPVLTFGGGTKVEIKR
			< 2	2 to 10	Polypeptide No. 37 (scFv, V domains shown, scFv) VH: QVQLVQSGAEVKKPGASVKVSCKASGYTFTGYYLHWVRQAPGQGLEWMGVISPSGGGTSYAQKFQGRVTMTRDTSTSTVYMELSSLRSEDTAVYYCARAGFGEGVFRHWGQGTLVTVSS VL: not shown
		no binding	10 to 30	< 2	Polypeptide No. 7 (scFv, V domains shown, scFv) VH: QVQLVQSGAEVKKPGASVKVSCKASGYTFTDYYMHWVRQAPGQGLEWMGWINPNSGGTNYAQKFQGRVTMTRDTSTSTVYMELSSLRSEDTAVYYCARDSRIAVAASSFDYWGQGTLVTVSS VL: DIQMTQSPSSLSASVGDRVTITCRASRGINNWLTWYQQKPGKAPKLLIYGASSLQSGVPSRFSGSGSGTDFTLTISSLQPEDFATYYCQQSYRIPYTFGQGTKLEIKR
		no binding	10 to 30	< 2	Polypeptide No. 8 (scFv, V domains shown, scFv) VH: not shown VL: DIQMTQSPSSLSASVGDRVTITCRASQSVSSFLNWYQQKPGKAPKLLIYAASSLQSGVPSRFSGSGSGTDFTLTISSLQPEDFATYYCQQSYTTPLTFGQGTKVEIKR
		no binding	> 30	< 2	Polypeptide No. 4 (scFv, V domains shown, scFv) VH: QVQLVQSGAEVKKPGASVKVSCKASGGTFSSYAISWVRQAPGQGLEWMGWINPNSGNTGYAQKFQGRVTMTRDTSTSTVYMELSSLRSEDTAVYYCAREHGDMDVWGQGTTVTVSS VL: EIVMTQSPATLSVSPGERATLSCRASQNINSDLAWYQQKPGQAPRLLIYGASTRATGIPARFSGSGSGTEFTLTISSLQSEDFAVYYCQQYDSLPFTFGPGTKVDIKR
no binding	binds				Polypeptide No. 46 (scFv, V domains shown, scFv) VH: QVQLVQSGAEVKKPGASVKVSCKASGYTFTSYYMHWVRQAPGQGLEWMGMINPSAGSTSYAQKFQGRVTMTRDTSTSTVYMELSSLRSEDTAVYYCASVDSSGWYAPFDYWGQGTLVTVSS VL: DIQMTQSPSSLSASVGDRVTITCRASQSISTYLNWYQQKPGKAPKLLIYDASNLETGVPSRFSGSGSGTDFTLTISSLQPEDFATYYCQQANSFPPTFGGGTKVEIKR
